Experimental data: patent publication US20240218342A1, “SITE-SPECIFIC GLYCAN REMODELING OF LYSOSOMAL ENZYMES AND APPLICATIONS THEREOF” (priority 2021, published 2024)

Columns and labels:
Bovine RNase B (bovine) = Bovine RNase B (bovine) (UniProt P61823)
[1] = target: GlcNAc-RNase B (67) (bovine) (UniProt P61823)
Sequence of GlcNAc-RNase B (67) (bovine) (P61823 27-150): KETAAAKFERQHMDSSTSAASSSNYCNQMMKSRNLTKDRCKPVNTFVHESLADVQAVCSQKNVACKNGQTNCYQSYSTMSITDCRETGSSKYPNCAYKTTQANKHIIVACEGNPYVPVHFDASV

Sequence of Bovine RNase B (bovine) (P61823 27-150): as above

deglycosylation of RNase B, isolated yield of GlcNAc-RNase B 67 (Bovine RNase B (bovine)): 86%
transglycosylation of oxazoline 8 to GlcNAc-RNase B, yield of glycoprotein 68 [1]: 71%
B1: Wild-type Endo-A (enzyme)
chain: STYNGPLSSHWFPEELAQWEPDSDPDAPFNRSHVPLEPGRVANRVNANADKDAHLVSLSALNRHTSGVPSQGAPVFYENTFSYWHYTDLMVYWAGSAGEGIIVPPSADVIDASHRNGVPILGNVFFPPTVYGGQLEWLEQMLEQEEDGSFPLADKLLEVADYYGFDGWFINQETEGADEGTAEAMQAFLVYLQEQKPEGMHIMWYDSMIDTGAIAWQNHLTDRNKMYLQNGSTRVADSMFLNFWWRDQRQSNELAQALGRSPYDLYAGVDVEARGTSTPVQWEGLFPEGEKAHTSLGLYRPDWAFQSSETMEAFYEKELQFWVGSTGNPAETDGQSNWPGMAHWFPAKSTATSVPFVTHFNTGSGAQFSAEGKTVSEQEWNNRSLQDVLPTWRWIQHGGDLEATFSWEEAFEGGSSLQWHGSLAEGEHAQIELYQTELPISEGTSLTWTFKSEHGNDLNVGFRLDGEEDFRYVEGEQRESINGWTQWTLPLDAFAGQTITGLAFAAEGNETGLAEFYIGQLAVGADSEKPAAPNVNVRQYDPDPSGIQLVWEKQSNVHHYRVYKETKHGKELIGTSAGDRIYLEGLVEESKQNDVRLHIEALSETFVPSDARMIDIKSGSF
